The values below come from PMC12749725 (Nature Communications, 2025).

Series [1] concerns the molecule itself. Nature of the series: SEC.
Series [2] concerns the molecule itself. Nature of the series: SEC-MALS. On the technique in general: Size exclusion chromatography separates by hydrodynamic size, large species first.
The target in series [3] is T1, BAI3_eCUB^253 (C-terminal extended CUB domain of BAI3, aa. 25-253) (human, UniProt O60242 25-253).
T1 sequence (looked up): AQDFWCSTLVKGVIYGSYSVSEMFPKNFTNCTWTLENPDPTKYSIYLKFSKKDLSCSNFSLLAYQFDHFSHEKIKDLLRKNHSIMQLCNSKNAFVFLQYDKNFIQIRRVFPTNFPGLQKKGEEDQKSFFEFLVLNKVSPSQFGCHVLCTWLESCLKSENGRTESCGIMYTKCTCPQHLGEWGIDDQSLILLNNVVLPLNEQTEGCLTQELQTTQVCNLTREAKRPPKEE
Nature of the series: ITC.

Series [4] addresses T2, BAI3 extracellular domain (ECD) (human, UniProt O60242 25-880).
T2 sequence (looked up): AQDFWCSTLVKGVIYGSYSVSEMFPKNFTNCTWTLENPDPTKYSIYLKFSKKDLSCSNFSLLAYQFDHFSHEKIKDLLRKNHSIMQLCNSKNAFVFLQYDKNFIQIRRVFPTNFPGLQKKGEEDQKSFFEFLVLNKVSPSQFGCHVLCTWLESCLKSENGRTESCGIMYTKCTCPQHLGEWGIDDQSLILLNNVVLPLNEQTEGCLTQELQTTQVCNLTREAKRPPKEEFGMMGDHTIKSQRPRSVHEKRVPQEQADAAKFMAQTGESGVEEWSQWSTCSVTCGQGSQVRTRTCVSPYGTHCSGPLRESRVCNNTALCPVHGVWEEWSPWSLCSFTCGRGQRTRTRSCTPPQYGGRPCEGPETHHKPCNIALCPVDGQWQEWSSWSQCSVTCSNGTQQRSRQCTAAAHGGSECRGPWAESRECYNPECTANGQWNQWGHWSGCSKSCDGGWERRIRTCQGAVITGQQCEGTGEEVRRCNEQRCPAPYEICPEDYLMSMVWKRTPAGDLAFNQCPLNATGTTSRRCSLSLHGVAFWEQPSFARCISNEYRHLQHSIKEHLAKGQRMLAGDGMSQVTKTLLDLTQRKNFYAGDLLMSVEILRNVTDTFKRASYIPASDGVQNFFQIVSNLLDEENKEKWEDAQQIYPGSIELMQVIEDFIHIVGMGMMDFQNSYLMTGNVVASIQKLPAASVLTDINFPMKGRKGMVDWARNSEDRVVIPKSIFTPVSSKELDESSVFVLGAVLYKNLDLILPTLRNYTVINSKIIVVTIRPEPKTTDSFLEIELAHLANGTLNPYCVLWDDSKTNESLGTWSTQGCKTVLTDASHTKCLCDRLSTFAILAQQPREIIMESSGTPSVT
Nature of the series: ITC. A general note: In ITC the heat of successive injections is recorded.

Series [5] concerns the molecule itself. Nature of the series: SEC. The source holds these as a separate data set.

Positions count from the first letter of the chain named. Numbers in names are those of the source. Where “and” joins values, the source holds several entries; their conditions need not be identical. Equal entries are not always repeated.

B1: full-length C1ql1, bacteria-expressed (without signal peptide) (natural protein, mouse, UniProt O88992 17-258, looked up)
chain: GPDGHYEMLGTCRMVCDPYPARGPGAGARSDGGDALSEQSGAPPPSTLVQGPQGKPGRTGKPGPPGPPGDRGPPGPVGPPGEKGEPGKPGPPGLPGSGGSGAISTATYTTVPRVAFYAGLKNPHEGYEVLKFDDVVTNLGNNYDAASGKFTCNIPGTYFFTYHVLMRGGDGTSMWADLCKNGQVRASAIAQDADQNYDYASNSVILHLDAGDEVFIKLDGGKAHGGNSNKYSTFSGFIIYSD
Usually stoichiometry N stands for the number of molecules, sites or subunits per partner or assembly. B1: the “stoichiometry N” value in series [1] was 6 and 3.

B2: C1ql1_gC1q (globular C1q domain of mouse C1ql1), wild type (domain or fragment)
chain: ATYTTVPRVAFYAGLKNPHEGYEVLKFDDVVTNLGNNYDAASGKFTCNIPGTYFFTYHVLMRGGDGTSMWADLCKNGQVRASAIAQDADQNYDYASNSVILHLDAGDEVFIKLDGGKAHGGNSNKYSTFSGFIIYSD
A word on the Kd: it is the constant that tells how readily two partners part at equilibrium. Read a low Kd as a tighter complex. Regarding B2, the “stoichiometry N” value was 6 and 3 in series [2]; 3 eCUB molecules per gC1q trimer in series [3]. For the same molecule, the Kd is approximately 150 nM in series [3] and approximately 1100 nM in series [4].

B3: C1ql1_gC1q D208N (domain or fragment, mouse)
chain: TTVPRVAFYAGLKNPHEGYEVLKFDDVVTNLGNNYDAASGKFTCNIPGTYFFTYHVLMRGGDGTSMWADLCKNGQVRASAIAQNADQNYDYASNSVILHLDAGDEVFIKLDGGKAHGGNSNKYSTFSGFIIYSD
Regarding B3, the binding result in series [5] is given as “binds”. Moreover, the “fold weaker binding than wild type” value in series [3] is approximately 9 fold.

B4: C1ql1_gC1q D210N (domain or fragment, mouse)
chain: B3 chain with N84D, D86N
On to B4, for which the binding result in series [3] was “binds”.

B5: C1ql1_gC1q D214N (domain or fragment, mouse)
chain: B3 chain with N84D, D90N
On to B5, for which the binding result in series [3] was “binds”.

B6: C1ql1_gC1q A209S (domain or fragment, mouse)
chain: B3 chain with N84D, A85S
B6: the binding result in series [3] is “binds”.
